In US20240293573A1 (SEOUL NATIONAL UNIVERSITY R AND DB FOUNDATION, published 2024):

Molecular target: T1, Claudin3 (Homo sapiens (Human), UniProt O15551 1-220)
T1 construct: also called CLDN3
T1 sequence: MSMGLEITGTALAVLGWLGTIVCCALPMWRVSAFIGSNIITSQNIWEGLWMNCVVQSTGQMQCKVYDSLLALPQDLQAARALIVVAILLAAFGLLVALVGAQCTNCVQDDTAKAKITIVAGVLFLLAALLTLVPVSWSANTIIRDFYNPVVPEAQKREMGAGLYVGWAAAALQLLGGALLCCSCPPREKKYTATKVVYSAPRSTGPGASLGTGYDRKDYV
Test: fluorescence of FITC-labeled h4G3cys on CLDN3/TOV-112D cells, one-to-one two-state model

Kd: 5.24 nM
B1: cysteine-substituted anti-Claudin3 human monoclonal antibody h4G3cys (light chain Q125C) (antibody, human IgG1, kappa, V domains shown)
VH: EVQLLESGGGLVQPGGSLRLSCAASGFTFSSYAMSWVRQAPGKGLEWVSIINPSGASTSHAQRFQGRFTISRDNSKNTLYLQMNSLRAEDTAVYYCARYGRYGSFDIWGQGTLVTVSS
VL: QSVLTQPPSASGTPGQRVTISCSGSTSNIGRNYVSWYQQLPGTAPKLLIYDTSNKHFGVPDRFSGSKSGTSASLAISGLRSEDEADYYCQSYDSSKVVFGGGTKLTVLR
notes: also called modified anti-Claudin3 antibody; anti-Claudin3 antibody variant
